Experimental findings from PMC11326307 (bioRxiv, 2024) are described below.

For one assay, the target named is T1, Spp381-DHFR (S. cerevisiae, UniProt P38282 1-291, Cy5-TMP fluorophore bound to the DHFR tag).
T1 sequence (looked up): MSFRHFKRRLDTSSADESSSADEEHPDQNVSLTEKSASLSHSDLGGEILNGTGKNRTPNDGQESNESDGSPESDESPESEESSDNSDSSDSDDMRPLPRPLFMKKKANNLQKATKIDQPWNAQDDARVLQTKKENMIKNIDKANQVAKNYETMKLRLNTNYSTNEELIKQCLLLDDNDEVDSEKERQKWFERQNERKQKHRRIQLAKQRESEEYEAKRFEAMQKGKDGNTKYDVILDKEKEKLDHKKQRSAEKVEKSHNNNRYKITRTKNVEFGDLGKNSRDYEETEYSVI
The experiment in a line: colocalization single molecule spectroscopy.

For another assay, the target named is T2, Snu23-DHFR (S. cerevisiae, UniProt Q12368 1-194, Cy5-TMP fluorophore bound to the DHFR tag).
T2 sequence (looked up): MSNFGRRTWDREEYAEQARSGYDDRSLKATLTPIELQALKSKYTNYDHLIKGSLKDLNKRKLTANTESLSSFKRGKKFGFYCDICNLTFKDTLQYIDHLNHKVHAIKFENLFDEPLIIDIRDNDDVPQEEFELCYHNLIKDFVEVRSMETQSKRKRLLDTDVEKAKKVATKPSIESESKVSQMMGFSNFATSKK
The experiment in a line: colocalization single molecule spectroscopy.

B1: Prp38-SNAP (natural protein)
chain: MAVNEFQVESNISPKQLNNQSVSLVIPRLTRDKIHNSMYYKVNLSNESLRGNTMVELLKVMIGAFGTIKGQNGHLHMMVLGGIEFKCILMKLIEIRPNFQQLNFLLNVKNENGFDSKYIIALLLVYARLQYYYLNGNNKNDDDENDLIKLFKVQLYKYSQHYFKLKSFPLQVDCFAHSYNEELCIIHIDELVDWLATQDHIWGIPLGKCQWNKIYNSDEESSSSESESNGDSEDDNDTSSES
modifications: SNAP-Surface 549 dye (SNAP-DY549) on the SNAP tag
As for B1, the “event pairs (of those arriving together) with simultaneous release” value in the assay with Spp381-DHFR and with Snu23-DHFR was 77% in each case. Moreover, the “event pairs with simultaneous arrival at the pre-mRNA” value with Spp381-DHFR and with Snu23-DHFR was 91% each time.
